# PMC7192610
# Read-outs that look alike come from different tables or passages of the source.
# B1: CCNG1 L2 (dsDNA)
# DNA 1: TACAAGGAGGCTTTTCATCCGCACAAGCCCAGGCTAGTCCGAGGCTGGAGGGGCGGAGCC
# DNA 2: GGCTCCGCCCCTCCAGCCTCGGACTAGCCTGGGCTTGTGCGGATGAAAAGCCTCCTTGTA
# B2: CCNG1 WT (dsDNA)
# DNA 1: AAACTCTACCGCTGTTGTGAGCACAAGCCCAGGCTAGTCCGAGGCTGGAGGGGCGGAGCC
# DNA 2: GGCTCCGCCCCTCCAGCCTCGGACTAGCCTGGGCTTGTGCTCACAACAGCGGTAGAGTTT
# Assays:
# GST-p53(1-393) [1] = biological target: T1, GST-p53(1-393) (Homo sapiens, UniProt P04637 1-393); assay: EMSA
# GST-p53(1-393) [2] = biological target: T1, GST-p53(1-393); assay: EMSA; remark: listed apart in the source
# T1 sequence (P04637 whole entry): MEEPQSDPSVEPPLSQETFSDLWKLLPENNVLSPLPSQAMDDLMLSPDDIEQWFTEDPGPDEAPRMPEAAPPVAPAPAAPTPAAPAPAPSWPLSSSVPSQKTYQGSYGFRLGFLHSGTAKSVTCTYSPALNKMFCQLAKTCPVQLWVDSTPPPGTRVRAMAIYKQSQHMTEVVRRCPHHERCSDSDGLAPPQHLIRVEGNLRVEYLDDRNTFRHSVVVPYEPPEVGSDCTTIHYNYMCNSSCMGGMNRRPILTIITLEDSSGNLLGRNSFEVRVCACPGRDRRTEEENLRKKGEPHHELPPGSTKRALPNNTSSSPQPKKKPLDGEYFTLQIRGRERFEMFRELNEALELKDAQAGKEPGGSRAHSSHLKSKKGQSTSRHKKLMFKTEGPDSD
binder,measurement,setting,value
B1,binding result,GST-p53(1-393) [1],binds
B2,binding result,GST-p53(1-393) [2],binds
